The supplement of paper PMC12636428

Each sequence was assayed on Saccharomyces cerevisiae (assay: transcriptional activation domain activity (GFP:mCherry ratio, weighted mean of sorted bins, harmonized to initial dataset scale) (arbitrary fluorescence ratio units); higher = stronger transcriptional activation). Settings: beta-estradiol 1 µM; induction time 4 h.
Procedure, shortened: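 After a 1:5 dilution into SC with 1 uM beta-estradiol and 4 hours at 30 °C, yeast diploids carrying a GFP reporter and URA3-integrated barcoded tiles were sorted into 8 bins by GFP:mCherry ratio. The tiles were fused to an estradiol-inducible synthetic transcription factor. Barcodes were sequenced, tiles below 50 reads were discarded, and activation activity was taken as the read-weighted mean of bin median fluorescence, averaged across barcodes and linearly mapped onto the initial dataset scale.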
For “MHVYVYIIIYNNIWYCMVYSINIHIFVNNYYLLRLLAIYYSYCFIVLLFIMFF”, the “transcriptional activation domain activity” value was 43500. With “AVWPLSERSKFHNIISVDLSDLGDVINPDVGTITELVCFDESIADLYPVGLDS” the “transcriptional activation domain activity” value was 122000. In the case of “YYCLLWVRVSIKGQKGAVIAPEQIVIGWVDFHALIIVLWSNRISITLCVARVI”, the “transcriptional activation domain activity” value was 29200. With “GHLLVVSISIIIKAMHGCLYCPIFMYVTTYGYYLWIASFIWRAYYLRFQLTLH” the “transcriptional activation domain activity” value was 43600. “RQEREGYEDYEDGSRRKHKNRHSRSPSSDGEDRISRKRKSRRAKDVEDSHANS” was tested, and the “transcriptional activation domain activity” value was 25500. For “MLCYAVLWYFVYITFFYINYDMVFLISYLVFLKQLIDRICIIIFIFSFIFFIF”, the “transcriptional activation domain activity” value was 47400. “KINQIFGYRSGLGFSIITLDWNQIAYIGSPYVAGSFRWAEANVMIGFMFFYWF” was tested, and the “transcriptional activation domain activity” value was 70300. In the case of “ISVLLVPYAWAILLAFLLLPVFLCVICMDWTYIPFYLPFFPMIGVFSIVIPLF”, the “transcriptional activation domain activity” value was 21100. With “LKIYLLNPLHMTRFADLLYQGAIMNRVIQPYESHLQYLLQWMCDYNLYGCGYI” the “transcriptional activation domain activity” value was 75800. In the case of “LDAVSSFNSSSVKSNFASKVNTQLNLLQHSSSNSNFLDASPYDFNKIFMNNFE”, the “transcriptional activation domain activity” value was 62000. In the case of “YCGDDMHSLRIVVAVLALLTTLKSIHAFAIVWVQSIVHFGDLQGAILLNYTAW”, the “transcriptional activation domain activity” value was 76900. “GILFATEGLYTMRFSSWYVRGLFISASIMLFFCYVVARVIIVVVMFTSLRGLP” was tested, and the “transcriptional activation domain activity” value was 49900. For “MSVYLFCGLLIFLGCGGSGWRYGFLSFFRLLLGVYVSFRYQHLIYTAWLMWAY”, the “transcriptional activation domain activity” value was 69200. “GWKGRGKSGGRGRKTSGGGLKTERKSGGVSKASGGGGSSSRGGRGAGAGAGAG” was tested, and the “transcriptional activation domain activity” value was 14100. “ENNDQFNNKTRKRKRRMSSTSSTSKASRKNSISRKNSAVTTAPAQKDDVENNK” was tested, and the “transcriptional activation domain activity” value was under 6570. With “SGDADEDGNGHGTHCSGTVAGKKYGVAKKASVYAVKVLRSNGSGSMSDVVKGV” the “transcriptional activation domain activity” value was 45000. For “MLRFYVLISFFFFLCNHLLFLICFIYIREFLSHLSGALVLCFGCMVWFLNFPS”, the “transcriptional activation domain activity” value was 62000. “TVEFLLPFLSFSLLGCLFIFYFIFFLCFLFFFSQTFCFFISSNCWCFVSNLLP” was tested, and the “transcriptional activation domain activity” value was 34700. With “MSLFLHSIIGGWLLHLFSLLCFLLFCFSAFCFSTTLFVTRRSGFVVGLWSLCL” the “transcriptional activation domain activity” value was 52000. With “WIVALAIIVSDYYGVVKGGVAYGLLASSNTSMAVFIFVWHLGGIWMITMLACM” the “transcriptional activation domain activity” value was 65100. “MVGRGCAVQVMIYPLFFVPGFLGFGFLVCYHFPFFMSLLWVLAWLRFWLVISS” was tested, and the “transcriptional activation domain activity” value was 64400. In the case of “AIGISGYVLPCLYRLALLVLNTTPNQPLDALLSFSHYTLQNSALAHFLPLFVN”, the “transcriptional activation domain activity” value was 53400. For “TLTDKCFGAFEDENAIHFHNFHVVSPKYMVILVNCLYMWDLMKTVGLRKPWSG”, the “transcriptional activation domain activity” value was 68200. “PFPLPLLLPCPLPLLFPLSFPLLLLLPFLLPLLFTLSFTLLFMLSFPLLFMLS” was tested, and the “transcriptional activation domain activity” value was 47900. With “RFRALRLLVIDDMIRLRDQSHCGWICTFLSSIELDVIQCINFRIWINMCPEFY” the “transcriptional activation domain activity” value was 32600. For “MIVFLFWVIGINLDCNCWFSLFLILLMRVMDLMSYGWIIEVFFFLLNFYYLLF”, the “transcriptional activation domain activity” value was 53700. “MISLVYTGVDGEFGMLFGFGFWFCFLMGRRFTVFVFVFLDMFWGHVFCFVCIS” was tested, and the “transcriptional activation domain activity” value was 45600. “WLHKLPRATWAYPLYGIYYLLTNPALLSPLLSRIIPLLILSIFVLTFTFTFLY” was tested, and the “transcriptional activation domain activity” value was 43800. For “HWKLNLYFMLTNVIVVLPLYQVYIYLLGCHPKSPLYHHRVKLSVFAWSIWFYC”, the “transcriptional activation domain activity” value was 36200. For “KKERKKEEKEEKGEKVKGKGERYVSDQVEEERERRRKRRNAKRQEREEEREKR”, the “transcriptional activation domain activity” value was 42900. In the case of “EGRRASRRKARGKSGADTPGTSEDEGVGGTSKSKPRKKRKLERKSKDAGKFKS”, the “transcriptional activation domain activity” value was 27600. With “TAPFPILEDQCPALNLDRSNNDLLLQNNISFPKGSDLQAIQLTPISGDYSTYV” the “transcriptional activation domain activity” value was 92600. “FPYFPYFPYFPYFLYFLFSLFSLLSLLPLLLYFLHPFLFLTCFWFSKLACFLS” was tested, and the “transcriptional activation domain activity” value was 51400. In the case of “EPAEEDSKPEEPAAAAEPEAEVKEEPAEEPAAPAEPKAEAEPEKADETPAAEA”, the “transcriptional activation domain activity” value was 24000. With “ILLAAHQILFIFCCWLFTITVCIPLSVIYYLFAILRLIKHYLLHRRPLIAYFL” the “transcriptional activation domain activity” value was 56900. For “VKVVRGTGKLIFLSRCIEPWLPKNNAYLLSLPWLDWKSLVLTVLYGIKGYCFL”, the “transcriptional activation domain activity” value was 62600. With “MSSTKRPAEEEEPVIHEEDEPGKPDSAAAPAPKRRGRPPGSKNKKTIAAEAAA” the “transcriptional activation domain activity” value was 32700. In the case of “MMSDSGQDEKTLPQADKNGTSQVAVPLEATEASEQALLRRLLRKTDLLVMPGL”, the “transcriptional activation domain activity” value was 24200. For “YKTCILPGADPGVNYIVGDDYLAVNYGYYVWQRWINFIAVCLFFLFFTVLTCL”, the “transcriptional activation domain activity” value was 55900. For “MLWGNVGTSIKIWYGVFFCYCSIVLFRSSLYIINFFLLCFFFFFVFFLWFFYH”, the “transcriptional activation domain activity” value was 44400. In the case of “GTGGLSELRDAFDDSKASYGYARVTYSNDKESQREKFILVVWIGSGCKVMRKG”, the “transcriptional activation domain activity” value was 36600. For “TRKLVFKWPYVPYLLGRYTMICCLLFVWVLLVNPIDCVHNELFIALVACMAVC”, the “transcriptional activation domain activity” value was 22500. With “LLLLIWMVTRLVRTYTTIMFRCLGPPDHVAKMHRLLLGLSTCLQLSVYVLITS” the “transcriptional activation domain activity” value was 47300. For “LAHCRAVVIRRVDGTAFEPVLRQAESLAVARTWLDRLFLCAYWMLTWFLADIV”, the “transcriptional activation domain activity” value was 56400. For “MAGAVPVLMLILLQLSHLCTAFKFYSESGFALVRKILLTALPTFEPHHYQMDG”, the “transcriptional activation domain activity” value was 64300. In the case of “RLSTFYNLNLIRVLFRFLFTLPLLILAHDFLLMLGALGCFVSSCITLLIFFPR”, the “transcriptional activation domain activity” value was 63000. In the case of “IRYWLLTFFVMDFLPNRELRLLLASWLNTLVNDPILKKHQDGLSIVRKLIKVA”, the “transcriptional activation domain activity” value was 51600. For “LGAIIYIYLCCHGSLTMVDLCTLLALNILNNVDGQCTRILCWWVSFAWCMYPG”, the “transcriptional activation domain activity” value was 58800. For “HESDDFWRENASKLNEKDYEQLKLVPLHMFAPDWPLNCLLLRILVRLLSTEDP”, the “transcriptional activation domain activity” value was 30700. For “EADGEVKTKSKKSKKQKGDAADSAEADDAKSAVPEGTDATKKKKKRKTQEPSD”, the “transcriptional activation domain activity” value was 30600. With “AVPGEVTEAEANGEAKAEGAAATTDEAAKPKKKKKSKSRKAKKTEDGTAPEEG” the “transcriptional activation domain activity” value was 37900. With “ALKILVLLVFIMDTLHTYGIISYQWGLFLYCHHNASFACLSDLPWEVFMCVAL” the “transcriptional activation domain activity” value was 41200. With “PSNSLEDSIQQTVKARRKLSARPVLRVRIPNNNFSSNSAIPSEPSSASSTSAN” the “transcriptional activation domain activity” value was 19300. For “MVQCAVAECAEEGQSQCGRCKQRFYCSAECQQKDWAAHKKACKKPTATAGPAP”, the “transcriptional activation domain activity” value was 39500. For “PSHRSVTPFLGQQQQLQSLVPLTPSALFGGANFNQSGNIADSSLSFTFTNSSN”, the “transcriptional activation domain activity” value was 49800. “GCKRESQEREEDKNIEKIRKKKQSVVNRKSKRRSETNRRNIKRNNRQHAARER” was tested, and the “transcriptional activation domain activity” value was 55600. With “CLIVARVVTVVFPFNFCFYFFVERILISVPVVCVCEVCVLEWCVWLRFLFACA” the “transcriptional activation domain activity” value was 32000. For “MLYYYHYLAVQSGLKRKYAFKNMYLCLLLYSLFFVFASINIVHLIKWQCYFFV”, the “transcriptional activation domain activity” value was 45800. In the case of “WLLFLQEYGTITLTLLQSLEYWISNIDLTDESKSQLSKQGRACMYHLIVLTLR”, the “transcriptional activation domain activity” value was 53700. In the case of “IFVSLLDYLATWISDDQIKCWPLNFVSRMFFYMLYFVFYRTILLFLTIEEIAV”, the “transcriptional activation domain activity” value was 55200. In the case of “TGAFGATANTGSAFGQRPAFGSPAPTGFGAAQPAATGFGGGGAFGAGANNTTS”, the “transcriptional activation domain activity” value was 22300. With “CQRQWADRVQMTLRQMYDLLLIEITRPRYSVFLTSGHSMEEMASVFRLIACIA” the “transcriptional activation domain activity” value was 44400. In the case of “PLFRHQDSLLIVASNIGLVGMISILVYCTYAFSLQSVVKFYFIPYVLVNHWIV”, the “transcriptional activation domain activity” value was 45200. For “AASKKERQSESHASSKRARSSKNGRGADADSSDEEEAGRSSSRKSRRTSTGDR”, the “transcriptional activation domain activity” value was 30200. For “RLDATAEEEAKRQRACEACRALKVRCDRGSDDSPCKRCEKARRECVITQPSRK”, the “transcriptional activation domain activity” value was 40300. For “MTLLFMWLIVRYILCYVSYYRRYAHRVGTQLPPTYPSFIPKYGTALSYLLAPA”, the “transcriptional activation domain activity” value was 58700. With “KQYCVRPNSGRIEPGKEVDVQVLLQAMKEDPPLDAKCRDKFLVQSVAVTADKE” the “transcriptional activation domain activity” value was 27100. For “MATRHVSAANNANKPRACLTCRTSKHKCDGNDRSTAPCSRCLRTGKSCIWPAK”, the “transcriptional activation domain activity” value was 33800. For “LLTWMPTVAWPMYNRCFGSLIWIPIRYELIAIVILSIITFFFLFLAALISIQL”, the “transcriptional activation domain activity” value was 43300. For “TSFVLYLKLNQVIAFSLRTIYSINKSKILLGFVGQQWEQHIVSELDSALNKWV”, the “transcriptional activation domain activity” value was 37900. In the case of “EIDEAAGEINEAAGEVNEAGEVDKAGEVDEAGEVNDEAGKIDKAAGEIDEAAG”, the “transcriptional activation domain activity” value was 30600. For “LLTFKLHRLFVVSQKMEDEGVRKLILHLTCCLLPKPNRDSMEAICLFLRWVAS”, the “transcriptional activation domain activity” value was 83200. For “APKEETTKPTIEVKIDVGSRCEVESTEPGLSKRGTVRFVGQTSFGNGEGVWVG”, the “transcriptional activation domain activity” value was 42200. For “KTIFFCGGRFLTSRALWAFCLSMFLFVMPSVLFLIFTCPWLWHHISPAVPIIF”, the “transcriptional activation domain activity” value was 41300. “YGLIYSILLHLCAVFISSLRRLTVLRELLRMLFLFSCFWFAVSISYMSVLYTI” was tested, and the “transcriptional activation domain activity” value was 49300. With “PAGDNKAPRKEGARANNRPRDNDAPRGPRYDRTPRDGDAASRAPRGARAPRGA” the “transcriptional activation domain activity” value was 41700. “MNPTPAVFALFFPVIFCVYICYAWFLLFFVFWEPFFFLHIFLYRIILLSIWNL” was tested, and the “transcriptional activation domain activity” value was 29900. For “IFSLILALIGMIILATIDVVHKIGVTYFACFLMAAGSYVPTVLVHSWHNNNNL”, the “transcriptional activation domain activity” value was 50300. “NWYKHINWLNTFFVVIMPMLGFIAAYWVPLHRYTALFAIFYYVHCGLGITAGY” was tested, and the “transcriptional activation domain activity” value was 68500. With “LWDANSFLTPMAQGLFKNLKSFEMLGMNCKVIRALILLIHRLWLLTNRLYRYN” the “transcriptional activation domain activity” value was 34000. For “GAGGAMGAALKHAVRDLAALSTAVSGAWVVEAITSSCSRRSIAVLVSRALAAM”, the “transcriptional activation domain activity” value was 42000. In the case of “STMHSNIGYIATLCLNLTLLLPLKDHPMVNNYVLVLVNSYWVLTGIWWFIFQQ”, the “transcriptional activation domain activity” value was 35000. For “LPLLHRELFLKKYFEPIYGPWNPNIALASDQTGINSAFEIPITSAFSAHTEPK”, the “transcriptional activation domain activity” value was 41700.
